Assay results published in patent US20160083712A1.

Target: CSN5 WT, soluble MPN domain construct of Example 2 (Homo sapiens)
Experiment: ITC

Chain of CSN5 WT, soluble MPN domain construct of Example 2 (Homo sapiens) (O35864 1-257 limits assumed): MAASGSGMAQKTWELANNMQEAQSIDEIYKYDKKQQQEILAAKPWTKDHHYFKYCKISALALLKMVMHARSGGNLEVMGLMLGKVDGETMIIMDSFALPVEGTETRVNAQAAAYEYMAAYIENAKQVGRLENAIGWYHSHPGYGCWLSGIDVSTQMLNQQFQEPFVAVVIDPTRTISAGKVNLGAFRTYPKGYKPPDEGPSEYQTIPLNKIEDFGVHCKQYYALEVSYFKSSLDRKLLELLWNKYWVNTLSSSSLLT

- Kd: 1000 to 5000 nM
Substance: CSN6, soluble MPN domain construct of Example 2 (from UniProt Q7L5N1 31-211)
